This note sets out measurements from publication PMC11605949.

This series addresses HER2 (human, UniProt P04626 23-652). The series can be described thus: SPR. Background: In SPR one partner is held on a chip, and binding of the other changes the refractive index at the surface.

B1: HER2 aptamer (ssDNA)
DNA: AACCGCCCAAATCCCTAAGAGTCTGCACTTGTCATTTTGTATATGTATTTGGTTTTTGGCTCTCACAGACACACTACACACGCACA
modifications: 5'-SH-(CH2)6
As to B1, the binding result is listed as “binds”.
